Numbered stars: 1 amine (or outer) side, 2 acyl side, 3 side chain; on linkers, the order of the positions; unused ones are H or OH. Bridge positions count the residues as written; N and C are the ends. Side chains are listed from the residue outwards. Ends that are not written are not given here. * marks the point of attachment. C20 diacid = O=C(O)CCCCCCCCCCCCCCCCCCC(=O)*; γGlu = O=C(O)[C@H](CCC(=O)[*:2])N[*:1]
Columns and labels:
[1] = molecular target: T1, human amylin receptor (amylin 3(a) receptor: human calcitonin receptor coexpressed with RAMP-3) (human, UniProt P30988 25-474; O60896 24-148); experiment: cell-based or functional assay
T1 sequence (looked up) 1: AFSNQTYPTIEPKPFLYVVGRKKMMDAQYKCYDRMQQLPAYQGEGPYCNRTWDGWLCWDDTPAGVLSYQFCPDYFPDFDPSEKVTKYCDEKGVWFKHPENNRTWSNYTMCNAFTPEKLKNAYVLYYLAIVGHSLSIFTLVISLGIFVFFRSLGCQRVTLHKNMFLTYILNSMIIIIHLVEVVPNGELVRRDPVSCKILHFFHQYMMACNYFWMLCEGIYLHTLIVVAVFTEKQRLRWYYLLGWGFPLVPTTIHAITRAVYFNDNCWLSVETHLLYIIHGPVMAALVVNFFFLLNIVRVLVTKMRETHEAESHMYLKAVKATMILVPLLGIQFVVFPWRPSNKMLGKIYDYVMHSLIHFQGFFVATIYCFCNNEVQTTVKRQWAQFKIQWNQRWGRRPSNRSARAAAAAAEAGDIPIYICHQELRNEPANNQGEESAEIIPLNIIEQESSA
T1 sequence (looked up) 2: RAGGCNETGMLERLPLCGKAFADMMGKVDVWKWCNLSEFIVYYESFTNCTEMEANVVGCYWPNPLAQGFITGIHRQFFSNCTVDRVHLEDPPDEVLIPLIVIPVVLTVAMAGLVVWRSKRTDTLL

[2] = molecular target: T2, human calcitonin receptor (human, UniProt P30988 25-474); experiment: cell-based or functional assay
T2 sequence (looked up): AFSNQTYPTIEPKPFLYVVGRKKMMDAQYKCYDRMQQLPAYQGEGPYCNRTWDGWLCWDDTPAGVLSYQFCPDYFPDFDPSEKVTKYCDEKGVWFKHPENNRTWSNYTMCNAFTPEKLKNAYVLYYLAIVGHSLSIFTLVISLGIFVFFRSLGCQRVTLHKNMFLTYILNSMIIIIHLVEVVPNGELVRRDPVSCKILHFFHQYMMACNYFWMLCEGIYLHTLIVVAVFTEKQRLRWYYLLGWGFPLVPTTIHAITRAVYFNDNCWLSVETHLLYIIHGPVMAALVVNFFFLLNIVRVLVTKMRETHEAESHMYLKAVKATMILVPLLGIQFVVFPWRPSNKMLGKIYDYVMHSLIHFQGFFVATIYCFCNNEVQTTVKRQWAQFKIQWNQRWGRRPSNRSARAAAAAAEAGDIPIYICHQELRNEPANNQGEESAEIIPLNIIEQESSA

[3] = molecular target: T1, human amylin receptor (amylin 3(a) …); experiment: SPA competition against 125I-rat amylin, membranes of BHK amylin 3(a)/CRE-luc cells (Assay V)
Experimental: The binding assay was performed using scintillation proximity assay (SPA) beads (RPNQ0001) from PerkinElmer and cell membranes from the Amylin 3(a)/CRE-luc cells (as described in Assay (II)) were used. Membranes were prepared in the following way; the cells were rinsed with PBS and incubated with Versene for approximately 5 min before harvesting. The cells were flushed with PBS and the cell-suspension was centrifuged for 5 min at 1000 rpm. Cells were homogenized (ultrathurrax) in a buffer containing 20 mM Na-HEPES and 10 mM EDTA (pH 7.4) and centrifuged at 20.000 rpm for 15 min. The resulting pellet was resuspended, homogenized and centrifuged (20.000 rpm, 15 min) in a buffer containing 20 mM Na-HEPES and 0.1 mM EDTA (pH 7.4, buffer 2). The resulting pellet was resuspended in buffer 2 and protein concentration was measured (BCA protein Assay, Pierce). The homogenate was kept cold during the whole procedure. The membranes were kept at −80° C. until use. The assay was performed in a 384 well Optiplate (PerkinElmer) in a total volume of 40 ul. Membranes were mixed with SPA beads. Final concentration of membranes 35 ng/μL final and SPA beads was 0.05 mg/well. Test-compounds were dissolved in DMSO and further diluted in assay buffer (50 mM Hepes, pH 7.4, 1 mM CaCl2, 5 mM MgCl₂, 0.1% OA and 0.02% Tween20). […] The final mixture was incubated with shaking at 400 rpm for 120 min at 25° C. prior to centrifugation (1500 rpm, 10 min). Samples were analyzed on TopCounter™ (Packard). The IC₅₀ was calculated using (one site binding competition analysis) GraphPad Prism5 as a measure of receptor affinity.

Binder	hAmylin-R funct. EC50 (pM) [1] [pM]	Ratio hCT/hAmylin funct. [2]	hCTR funct. EC50 (pM) [2] [pM]	IC50 [3] [nM]
K([γGlu-γGlu-C20 diacid])CNTATCATQRLAEFLRHSSPNFGAIPSSTNVGRETY-NH2 (disulfide 2-7; N-terminus assumed; SMILES CC[C@H](C)[C@H](NC(=O)[C@H](C)NC(=O)CNC(=O)[C@H](Cc1ccccc1)NC(=O)[C@H](CC(N)=O)NC(=O)[C@@H]1CCCN1C(=O)[C@H](CO)NC(=O)[C@H](CO)NC(=O)[C@H](Cc1c[nH]cn1)NC(=O)[C@H](CCCNC(=N)N)NC(=O)[C@H](CC(C)C)NC(=O)[C@H](Cc1ccccc1)NC(=O)[C@H](CCC(=O)O)NC(=O)[C@H](C)NC(=O)[C@H](CC(C)C)NC(=O)[C@H](CCCNC(=N)N)NC(=O)[C@H](CCC(N)=O)NC(=O)[C@@H](NC(=O)[C@H](C)NC(=O)[C@@H]1CSSC[C@H](NC(=O)[C@@H](N)CCCCNC(=O)CC[C@H](NC(=O)CC[C@H](NC(=O)CCCCCCCCCCCCCCCCCCC(=O)O)C(=O)O)C(=O)O)C(=O)N[C@@H](CC(N)=O)C(=O)N[C@@H]([C@@H](C)O)C(=O)N[C@@H](C)C(=O)N[C@@H]([C@@H](C)O)C(=O)N1)[C@@H](C)O)C(=O)N1CCC[C@H]1C(=O)N[C@@H](CO)C(=O)N[C@@H](CO)C(=O)N[C@H](C(=O)N[C@@H](CC(N)=O)C(=O)N[C@H](C(=O)NCC(=O)N[C@@H](CCCNC(=N)N)C(=O)N[C@@H](CCC(=O)O)C(=O)N[C@H](C(=O)N[C@@H](Cc1ccc(O)cc1)C(N)=O)[C@@H](C)O)C(C)C)[C@@H](C)O)	703	10.6	7430	0.957
K([γGlu-γGlu-C20 diacid])CNTATCATQRLAEFLRHSSPNFGAIPSSTNVGPETY-NH2 (disulfide 2-7; N-terminus assumed; SMILES CC[C@H](C)[C@H](NC(=O)[C@H](C)NC(=O)CNC(=O)[C@H](Cc1ccccc1)NC(=O)[C@H](CC(N)=O)NC(=O)[C@@H]1CCCN1C(=O)[C@H](CO)NC(=O)[C@H](CO)NC(=O)[C@H](Cc1c[nH]cn1)NC(=O)[C@H](CCCNC(=N)N)NC(=O)[C@H](CC(C)C)NC(=O)[C@H](Cc1ccccc1)NC(=O)[C@H](CCC(=O)O)NC(=O)[C@H](C)NC(=O)[C@H](CC(C)C)NC(=O)[C@H](CCCNC(=N)N)NC(=O)[C@H](CCC(N)=O)NC(=O)[C@@H](NC(=O)[C@H](C)NC(=O)[C@@H]1CSSC[C@H](NC(=O)[C@@H](N)CCCCNC(=O)CC[C@H](NC(=O)CC[C@H](NC(=O)CCCCCCCCCCCCCCCCCCC(=O)O)C(=O)O)C(=O)O)C(=O)N[C@@H](CC(N)=O)C(=O)N[C@@H]([C@@H](C)O)C(=O)N[C@@H](C)C(=O)N[C@@H]([C@@H](C)O)C(=O)N1)[C@@H](C)O)C(=O)N1CCC[C@H]1C(=O)N[C@@H](CO)C(=O)N[C@@H](CO)C(=O)N[C@H](C(=O)N[C@@H](CC(N)=O)C(=O)N[C@H](C(=O)NCC(=O)N1CCC[C@H]1C(=O)N[C@@H](CCC(=O)O)C(=O)N[C@H](C(=O)N[C@@H](Cc1ccc(O)cc1)C(N)=O)[C@@H](C)O)C(C)C)[C@@H](C)O)	225	10.5	2360	0.121

Reference: patent publication US20140087995A1 (published 2014)
